Reference: publication PMC10047360

B1: LRP6: B3GnT2−/− (protein)
parent chain: MGAVLRSLLACSFCVLLRAAPLLLYANRRDLRLVDATNGKENATIVVGGLEDAAAVDFVFSHGLIYWSDVSEEAIKRTEFNKTESVQNVVVSGLLSPDGLACDWLGEKLYWTDSETNRIEVSNLDGSLRKVLFWQELDQPRAIALDPSSGFMYWTDWGEVPKIERAGMDGSSRFIIINSEIYWPNGLTLDYEEQKLYWADAKLNFIHKSNLDGTNRQAVVKGSLPHPFALTLFEDILYWTDWSTHSILACNKYTGEGLREIHSDIFSPMDIHAFSQQRQPNATNPCGIDNGGCSHLCLMSPVKPFYQCACPTGVKLLENGKTCKDGATELLLLARRTDLRRISLDTPDFTDIVLQLEDIRHAIAIDYDPVEGYIYWTDDEVRAIRRSFIDGSGSQFVVTAQIAHPDGIAVDWVARNLYWTDTGTDRIEVTRLNGTMRKILISEDLEEPRAIVLDPMVGYMYWTDWGEIPKIERAALDGSDRVVLVNTSLGWPNGLALDYDEGKIYWGDAKTDKIEVMNTDGTGRRVLVEDKIPHIFGFTLLGDYVYWTDWQRRSIERVHKRSAEREVIIDQLPDLMGLKATNVHRVIGSNPCAEENGGCSHLCLYRPQGLRCACPIGFELISDMKTCIVPEAFLLFSRRADIRRISLETNNNNVAIPLTGVKEASALDFDVTDNRIYWTDISLKTISRAFMNGSALEHVVEFGLDYPEGMAVDWLGKNLYWADTGTNRIEVSKLDGQHRQVLVWKDLDSPRALALDPAEGFMYWTEWGGKPKIDRAAMDGSERTTLVPNVGRANGLTIDYAKRRLYWTDLDTNLIESSNMLGLNREVIADDLPHPFGLTQYQDYIYWTDWSRRSIERANKTSGQNRTIIQGHLDYVMDILVFHSSRQSGWNECASSNGHCSHLCLAVPVGGFVCGCPAHYSLNADNRTCSAPTTFLLFSQKSAINRMVIDEQQSPDIILPIHSLRNVRAIDYDPLDKQLYWIDSRQNMIRKAQEDGSQGFTVVVSSVPSQNLEIQPYDLSIDIYSRYIYWTCEATNVINVTRLDGRSVGVVLKGEQDRPRAVVVNPEKGYMYFTNLQERSPKIERAALDGTEREVLFFSGLSKPIALALDSRLGKLFWADSDLRRIESSDLSGANRIVLEDSNILQPVGLTVFENWLYWIDKQQQMIEKIDMTGREGRTKVQARIAQLSDIHAVKELNLQEYRQHPCAQDNGGCSHICLVKGDGTTRCSCPMHLVLLQDELSCGEPPTCSPQQFTCFTGEIDCIPVAWRCDGFTECEDHSDELNCPVCSESQFQCASGQCIDGALRCNGDANCQDKSDEKNCEVLCLIDQFRCANGQCIGKHKKCDHNVDCSDKSDELDCYPTEEPAPQATNTVGSVIGVIVTIFVSGTVYFICQRMLCPRMKGDGETMTNDYVVHGPASVPLGYVPHPSSLSGSLPGMSRGKSMISSLSIMGGSSGPPYDRAHVTGASSSSSSSTKGTYFPAILNPPPSPATERSHYTMEFGYSSNSPSTHRSYSYRPYSYRHFAPPTTPCSTDVCDSDYAPSRRMTSVATAKGYTSDLNYDSEPVPPPPTPRSQYLSAEENYESCPPSPYTERSYSHHLYPPPPSPCTDSS
B2: LRP6: N1039Q (protein)
parent chain: B1 parent chain
B3: LRP6: N926Q (protein)
parent chain: B1 parent chain
B4: LRP6: N433Q (protein)
parent chain: B1 parent chain
B5: LRP6: N865Q (protein)
parent chain: B1 parent chain
B6: LRP6: N281Q (protein)
parent chain: B1 parent chain
B7: LRP6: N692Q (protein)
parent chain: B1 parent chain
B8: LRP6: N486Q (protein)
parent chain: B1 parent chain
B9: LRP6: N42Q (protein)
parent chain: B1 parent chain
B10: LRP6: N859Q (protein)
parent chain: B1 parent chain
B11: LRP6: N81Q (protein)
parent chain: B1 parent chain
B12: LRP6: hB3GnT2 co-expression (protein)
parent chain: B1 parent chain

Assay: Western blot of overexpressed LRP6
Details: glycan changed form; control: wild-type HEK293T cells
In the case of B1, the expression_or_secretion is reported as “increases”.

Assay: Western blot, mature upper band, B3GnT2-/- HEK293T
Details: glycan lost; control: wild-type LRP6
For B2, the localisation_or_trafficking was “no change”. With B3 the localisation_or_trafficking was “no change”. In the case of B4, the localisation_or_trafficking is reported as “no change”. With B5 the localisation_or_trafficking was “no change”. With B6 the localisation_or_trafficking was “no change”. With B7 the localisation_or_trafficking was “abolishes”. In the case of B8, the localisation_or_trafficking is reported as “no change”. For B9, the localisation_or_trafficking was “no change”. In the case of B10, the localisation_or_trafficking is reported as “no change”. With B11 the localisation_or_trafficking was “abolishes”.

Assay: cell-surface HiBiT/LgBiT luminescence to mCherry ratio
Details: glycan changed form; control: HiBiT-LRP6-mCherry alone
For B12, the “localisation_or_trafficking, fold_change” value was “increases”.
